Source: publication PMC11125477 (PLOS ONE, 2024)

Molecular target: T1, MAMDC4 (UniProt Q63191 22-1216)
T1 construct: HEK293 cells also hold endogenous (human) MAMDC4, which the anti-MAMDC4 antibody may precipitate as well; also called Endotubin; AEGP; source: HEK293, transfected (overexpressed), in lysate
Experiment: co-IP; HEK293 cells overexpressing MAMDC4, control or 50% Wnt3a conditioned media for 6hrs; NP-40 lysis buffer; lysates precipitated with anti-MAMDC4 (hybridoma supernatant) or control IgG on Protein G Dynabeads overnight at 4°C; immunoblot; input 1/50th of lysate
Settings: partners not purified

T1 sequence (Q63191 22-1216): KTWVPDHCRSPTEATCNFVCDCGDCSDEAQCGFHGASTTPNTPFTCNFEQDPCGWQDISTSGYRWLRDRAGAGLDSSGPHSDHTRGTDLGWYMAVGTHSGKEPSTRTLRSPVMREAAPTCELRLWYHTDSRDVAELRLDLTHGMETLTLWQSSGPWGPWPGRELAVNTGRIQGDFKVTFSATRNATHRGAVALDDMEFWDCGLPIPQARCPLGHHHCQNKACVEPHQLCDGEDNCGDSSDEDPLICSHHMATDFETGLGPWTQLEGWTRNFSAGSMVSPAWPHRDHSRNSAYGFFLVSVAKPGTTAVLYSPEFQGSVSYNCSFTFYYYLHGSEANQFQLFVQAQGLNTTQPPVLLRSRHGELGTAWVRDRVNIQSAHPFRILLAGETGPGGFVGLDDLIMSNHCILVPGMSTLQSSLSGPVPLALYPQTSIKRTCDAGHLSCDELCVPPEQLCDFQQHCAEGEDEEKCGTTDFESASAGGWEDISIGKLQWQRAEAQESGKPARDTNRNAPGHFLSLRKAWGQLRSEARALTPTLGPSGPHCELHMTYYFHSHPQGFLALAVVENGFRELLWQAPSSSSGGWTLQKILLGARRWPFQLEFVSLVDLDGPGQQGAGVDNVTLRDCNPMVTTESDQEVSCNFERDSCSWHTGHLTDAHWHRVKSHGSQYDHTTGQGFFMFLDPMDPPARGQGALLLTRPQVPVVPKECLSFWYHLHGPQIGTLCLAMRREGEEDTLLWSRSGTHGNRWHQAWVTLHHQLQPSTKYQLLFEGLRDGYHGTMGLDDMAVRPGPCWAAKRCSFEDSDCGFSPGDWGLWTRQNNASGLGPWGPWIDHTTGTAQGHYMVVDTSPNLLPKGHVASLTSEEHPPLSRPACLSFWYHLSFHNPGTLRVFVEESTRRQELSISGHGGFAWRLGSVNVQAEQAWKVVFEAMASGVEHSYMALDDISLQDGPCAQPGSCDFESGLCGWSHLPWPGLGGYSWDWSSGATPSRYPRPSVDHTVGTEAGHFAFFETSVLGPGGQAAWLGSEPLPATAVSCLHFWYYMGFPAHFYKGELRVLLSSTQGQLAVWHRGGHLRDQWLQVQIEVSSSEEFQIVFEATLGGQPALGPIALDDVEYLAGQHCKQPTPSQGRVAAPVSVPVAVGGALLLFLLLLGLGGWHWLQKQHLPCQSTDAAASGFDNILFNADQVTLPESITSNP

| Binder | ratio of signal from immunoprecipitation relative to input |
| --- | --- |
| LRP6 (receptor, human (endogenous in HEK293), UniProt O75581 20-1613, looked up, LRP6, endogenous in HEK293 cells, detected with rabbit anti-LRP6 (CST 2560); also called total LRP6; source: endogenous, HEK293 lysate) APLLLYANRRDLRLVDATNGKENATIVVGGLEDAAAVDFVFSHGLIYWSDVSEEAIKRTEFNKTESVQNVVVSGLLSPDGLACDWLGEKLYWTDSETNRIEVSNLDGSLRKVLFWQELDQPRAIALDPSSGFMYWTDWGEVPKIERAGMDGSSRFIIINSEIYWPNGLTLDYEEQKLYWADAKLNFIHKSNLDGTNRQAVVKGSLPHPFALTLFEDILYWTDWSTHSILACNKYTGEGLREIHSDIFSPMDIHAFSQQRQPNATNPCGIDNGGCSHLCLMSPVKPFYQCACPTGVKLLENGKTCKDGATELLLLARRTDLRRISLDTPDFTDIVLQLEDIRHAIAIDYDPVEGYIYWTDDEVRAIRRSFIDGSGSQFVVTAQIAHPDGIAVDWVARNLYWTDTGTDRIEVTRLNGTMRKILISEDLEEPRAIVLDPMVGYMYWTDWGEIPKIERAALDGSDRVVLVNTSLGWPNGLALDYDEGKIYWGDAKTDKIEVMNTDGTGRRVLVEDKIPHIFGFTLLGDYVYWTDWQRRSIERVHKRSAEREVIIDQLPDLMGLKATNVHRVIGSNPCAEENGGCSHLCLYRPQGLRCACPIGFELISDMKTCIVPEAFLLFSRRADIRRISLETNNNNVAIPLTGVKEASALDFDVTDNRIYWTDISLKTISRAFMNGSALEHVVEFGLDYPEGMAVDWLGKNLYWADTGTNRIEVSKLDGQHRQVLVWKDLDSPRALALDPAEGFMYWTEWGGKPKIDRAAMDGSERTTLVPNVGRANGLTIDYAKRRLYWTDLDTNLIESSNMLGLNREVIADDLPHPFGLTQYQDYIYWTDWSRRSIERANKTSGQNRTIIQGHLDYVMDILVFHSSRQSGWNECASSNGHCSHLCLAVPVGGFVCGCPAHYSLNADNRTCSAPTTFLLFSQKSAINRMVIDEQQSPDIILPIHSLRNVRAIDYDPLDKQLYWIDSRQNMIRKAQEDGSQGFTVVVSSVPSQNLEIQPYDLSIDIYSRYIYWTCEATNVINVTRLDGRSVGVVLKGEQDRPRAVVVNPEKGYMYFTNLQERSPKIERAALDGTEREVLFFSGLSKPIALALDSRLGKLFWADSDLRRIESSDLSGANRIVLEDSNILQPVGLTVFENWLYWIDKQQQMIEKIDMTGREGRTKVQARIAQLSDIHAVKELNLQEYRQHPCAQDNGGCSHICLVKGDGTTRCSCPMHLVLLQDELSCGEPPTCSPQQFTCFTGEIDCIPVAWRCDGFTECEDHSDELNCPVCSESQFQCASGQCIDGALRCNGDANCQDKSDEKNCEVLCLIDQFRCANGQCIGKHKKCDHNVDCSDKSDELDCYPTEEPAPQATNTVGSVIGVIVTIFVSGTVYFICQRMLCPRMKGDGETMTNDYVVHGPASVPLGYVPHPSSLSGSLPGMSRGKSMISSLSIMGGSSGPPYDRAHVTGASSSSSSSTKGTYFPAILNPPPSPATERSHYTMEFGYSSNSPSTHRSYSYRPYSYRHFAPPTTPCSTDVCDSDYAPSRRMTSVATAKGYTSDLNYDSEPVPPPPTPRSQYLSAEENYESCPPSPYTERSYSHHLYPPPPSPCTDSS | ~1 ratio IP to input |
| phospho-LRP6 (Ser 1490) (receptor, human (endogenous in HEK293), UniProt O75581 20-1613, looked up, phosphoserine at 1490, LRP6 phosphorylated at Ser 1490, endogenous in HEK293 cells, detected with rabbit anti-phospho-LRP6 (Ser 1490) (CST 2568); also called p-LRP6; source: endogenous, HEK293 lysate) APLLLYANRRDLRLVDATNGKENATIVVGGLEDAAAVDFVFSHGLIYWSDVSEEAIKRTEFNKTESVQNVVVSGLLSPDGLACDWLGEKLYWTDSETNRIEVSNLDGSLRKVLFWQELDQPRAIALDPSSGFMYWTDWGEVPKIERAGMDGSSRFIIINSEIYWPNGLTLDYEEQKLYWADAKLNFIHKSNLDGTNRQAVVKGSLPHPFALTLFEDILYWTDWSTHSILACNKYTGEGLREIHSDIFSPMDIHAFSQQRQPNATNPCGIDNGGCSHLCLMSPVKPFYQCACPTGVKLLENGKTCKDGATELLLLARRTDLRRISLDTPDFTDIVLQLEDIRHAIAIDYDPVEGYIYWTDDEVRAIRRSFIDGSGSQFVVTAQIAHPDGIAVDWVARNLYWTDTGTDRIEVTRLNGTMRKILISEDLEEPRAIVLDPMVGYMYWTDWGEIPKIERAALDGSDRVVLVNTSLGWPNGLALDYDEGKIYWGDAKTDKIEVMNTDGTGRRVLVEDKIPHIFGFTLLGDYVYWTDWQRRSIERVHKRSAEREVIIDQLPDLMGLKATNVHRVIGSNPCAEENGGCSHLCLYRPQGLRCACPIGFELISDMKTCIVPEAFLLFSRRADIRRISLETNNNNVAIPLTGVKEASALDFDVTDNRIYWTDISLKTISRAFMNGSALEHVVEFGLDYPEGMAVDWLGKNLYWADTGTNRIEVSKLDGQHRQVLVWKDLDSPRALALDPAEGFMYWTEWGGKPKIDRAAMDGSERTTLVPNVGRANGLTIDYAKRRLYWTDLDTNLIESSNMLGLNREVIADDLPHPFGLTQYQDYIYWTDWSRRSIERANKTSGQNRTIIQGHLDYVMDILVFHSSRQSGWNECASSNGHCSHLCLAVPVGGFVCGCPAHYSLNADNRTCSAPTTFLLFSQKSAINRMVIDEQQSPDIILPIHSLRNVRAIDYDPLDKQLYWIDSRQNMIRKAQEDGSQGFTVVVSSVPSQNLEIQPYDLSIDIYSRYIYWTCEATNVINVTRLDGRSVGVVLKGEQDRPRAVVVNPEKGYMYFTNLQERSPKIERAALDGTEREVLFFSGLSKPIALALDSRLGKLFWADSDLRRIESSDLSGANRIVLEDSNILQPVGLTVFENWLYWIDKQQQMIEKIDMTGREGRTKVQARIAQLSDIHAVKELNLQEYRQHPCAQDNGGCSHICLVKGDGTTRCSCPMHLVLLQDELSCGEPPTCSPQQFTCFTGEIDCIPVAWRCDGFTECEDHSDELNCPVCSESQFQCASGQCIDGALRCNGDANCQDKSDEKNCEVLCLIDQFRCANGQCIGKHKKCDHNVDCSDKSDELDCYPTEEPAPQATNTVGSVIGVIVTIFVSGTVYFICQRMLCPRMKGDGETMTNDYVVHGPASVPLGYVPHPSSLSGSLPGMSRGKSMISSLSIMGGSSGPPYDRAHVTGASSSSSSSTKGTYFPAILNPPPSPATERSHYTMEFGYSSNSPSTHRSYSYRPYSYRHFAPPTTPCSTDVCDSDYAPSRRMTSVATAKGYTSDLNYDSEPVPPPPTPRSQYLSAEENYESCPPSPYTERSYSHHLYPPPPSPCTDSS | ~1 ratio IP to input |
